In the nanobody polyreactivity screen of Harvey et al. (2022):

Experiment: yeast display, Sf9 membrane polyspecificity reagent, FACS + sequencing; frameworks hold sequencing errors
Procedure, shortened: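 After 36–48 hours of galactose induction, yeast (Saccharomyces cerevisiae BJ5465) displaying a synthetic nanobody library were stained at 4 °C for 1 hour with 10% biotinylated, detergent-solubilized Sf9 membrane reagent. Streptavidin microbeads enriched the stained cells before FACS sorting into low and high (top ~1%) gates on anti-HA and streptavidin fluorescence. Each clone's polyreactivity label reflects its gate of origin.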

Sequence	polyreactivity (PSR sort gate)
QVQLVESGGGLVQAGGSLRLSCAASGRIFAFYAMGWYRQAPGKERELVAAITSGGSTKYADSVNGRFSISRDNAKNTVYLLMNSMKPEDTAVYYCAARYRWQFRSQYDYWGQGTQVTVSS	high polyreactivity
QGQLGESGGGLVQAGGSLRLSCAASGGTFYYYAMGWYRHAPGKEREFVAAITWTGGRTYYADSVKGRFTISRDNAKNTVYLQMNSLKPEDSAVYYCAASDRYGGRDYWGQGTQVTVSS	high polyreactivity
QVQLVESGGGLVHAGGSLRLSCAASGRIFFDYTMGWYRQAPGKERELVAAIRTRGDSTYYADSVKGRFTISRDNAKNTFYLQMNSLKPEDTAVYYCAAAVYVRGRRESWGQGTQVTVSS	high polyreactivity
QVQHVESGGGVVQAGRSLRLRCDASGFILWYYTMGWYRPAPGKERELVAAISRGGTTYYADSVKGRFTISRDNAKKSVYLQMTSLKPEDTAVYYCNAPDNTHGIVLYDYWGQGTQVTVSS	low polyreactivity
QVQLVESGGGLVQAGGSLRLSCAASGLTFGRNAMGWYRQAPWKERELVAAISRSGGRTSYADSVKGRFTISRDNAKNTVYLQMNSLKPEDTAVYYCAARSDVYTHDYWGQGTQVTVSS	high polyreactivity
QVQLVESGGGLVQAGGSLRLSCAASGGTITRYAMGWYRQAPGKERELVAAISSSGGSTYYADSVKGRFTISRDNAKNTVYLQMNSLKPEDTAVYYCAAEGYTLWYWLEFEYWGQGTQVTVSS	high polyreactivity
QVQLVESGGGLVQAGGSLRLSCAPSGSIFIRNAMGWYRQAPGKERELVAAISGSGSSTYYADSVKGRFTISRDNAKNTVYLQMNSLKPEDTAVYYCNTDRTHSYQYGGYDYWGQGTQVTVSS	low polyreactivity
QVQLVESGGGLVQAGGSLRLSCAASGRIFYLKVMGWYRQEPGKERELVAAITRRDVTTYADSVKGRFTISRDNAKNTVYLQMNSLKPEDTAVYYCNADSPSLSGDYWGQGTQVTVSS	low polyreactivity
QVQLVESGGGLVQAGGSLRLSCAASGRTFKDYAKGWYRHAPGKERELVARINGSGGSTYYADSVKGRFTISRDTAKNSVYLQMNSLKPEDTAVYYCGKDARRRTSILSGGRHYDYWGQGTQVTVSS	low polyreactivity
QVQLVESVGGLVQAGGSLRLSSAASGSIFAYNAMGSYRQAPGKERELVAAITSDDSTNNADSVKGRFTISRDNAKNTVYLQMNSLKPEDTAVYYCAAYYYYTYIIGYDYWGQGTQVTVSS	low polyreactivity
QVQLVESGGGLVQAGGSLRLSCAASGFIFYLYAMGWYRQAPGKERELVAAIDSGDDTDYADSVKGRFTISRDNAKNTVYLQMNSLKPEDTAVYYCAAGAYWPWGEDYWGQGTQVTVSS	high polyreactivity
QVQLVESGGGLVQAGGSLRLSCAASGNTFSAYAMGWYRQAPGKERELVAAISSRGGSTYYADSVKGRFTISRDNAKNTVYLQMNSLKPEDTAVYYCAAGYRGVANRKWIYYYWGQGTQVTVSS	high polyreactivity
QVQLVESGGGLVQAGGSLRLSCAASGRIFPAYAMGWYRQAPGKEREWVASIRRGGITYADSVKGRFTISRDNAKNTVYLQMNSLKPEDTAVYYCNADYRGWGYHMDYWGQGTQVTVSS	low polyreactivity
QVQLVESGGGLVQAGGSLRLSCAASGYTFLYYAMGWYRQAPGKEREFVAAISRSGGSTYYADSVKGRFTISRDNAKNTVYLQMNSLKPEDTAVYYCAKDHPSGRQYDYWGQGTQVTVSS	high polyreactivity
QVQLVESGGGLVQAGGSLRLSCAASGSTLWRYAMGWYRQAPGKEREFVAAISGSGGSTYYADSVKGRFTISRDNAKNTVYLLMNSLKPEDTAVYYCAASRKYRNPDRSMYYWGQGTQVTVSS	high polyreactivity
QVQRVESGGGLVQAGGSLRLSCAASGIIFRGYAMGWYRQAPGKERELVAAITSSGARTYYADSVKGRFTISRDNAKNTVYLQMNSLKPDDTAVYYCNATSSVRRYDSWGQGTQVTVSS	high polyreactivity

Sequence	polyreactivity (PSR sort gate)
QVQLVESGGGLVQAGGSLRLSCAASGRTFTYYAMGWSRQAPGKERELVASITSGGSTYADSVKGRFTISRDNAKNTVYLQMNSLKPEDTAVYYCAARAWGYRYKYYWGQGTQVTVSS	high polyreactivity
QVQLVESGVCLVQAGGSLRLSCAASGFTFKWYAMGWYRQAPGKERELVATITIGGRTNYADSVKGRFTISRDNAKNTVYLQMNSLKPEETAVYYCATYFVGFRLSDYDYWGQGTQVTVSS	low polyreactivity
QVQLVESVGGLVQAGGSLRLSSAASGSTFRGYALGWYRQSPGKERELVASISWSGGSTYYADSVKGRFTISRDNAKNTVYLQMNSLKQEDTAVYYCAARKRWRNIRMDYWGQGTQVTVSS	high polyreactivity
QVQLVESGGGLVQEGGSLRLSCAASGSIFGVYTMGWYRPEPGKERELVAAINWGGTSTYYADSVKGRFTISRDNAKNTVYLQMNSLKPEDTAVYYCNAERRRRYPYNYWGHGTQVTVSS	high polyreactivity
QVQLVESGGGLVQAGGSLRLSCAASGRTFRYYAMGWYRQAPGKERELVADISSTGRTYYADSVKGRFTISRDNAKNTVYLQMNSLKPEDTAVYYCNADYFFEFDYWGQGTQVTVSS	low polyreactivity
QVQLVESGGGLVQAGDSLRLSCAASGLTFTYYAMGWYRQAPGKERELVAAITGSGDRTYYADSVKGRFTISRDNAKNTVYLQMNSLKPEDTAVYYCARDRPGRATGFDYWGPGTQVTVSS	high polyreactivity
QVQLVESGGGLVQAGGSLRLSCAASGGTFPYYAMGWYRQAPGKERELVAAITWDGGSTYYADSVKGRFTISRDNAKNTVYLQMNSLKPDATAVYYCNVRYYRYISRYDYWVQGTQVTVSS	high polyreactivity
QVHLVESGGGLVQAGGSLRLSCAASVFTFNSNAMGWYRQAPGKERELVAAISWSGGSTYYADSVKGRFTISRDNAKNTVYLLMNSLKPEDTAVYYCAKGYRRVYGPFYYWGQGTQLTVSS	low polyreactivity
QVQLVESGGGLVQAGGSLRLSCAASGFTFAKNAMGWYRQAPGKERELVATISRSGGSTYYADSVKGRFTLSRDNAKNTVYLQMNSLKREVNAVYYCNKKYNYLYDYWGQGTQVTVSS	high polyreactivity
QVQLVESGGGLVQAGGSLRLSCAASGFTFRYYAMGWYRQAPGKERELVAAISWSGASTYYADSVKGRFTISRDNAKNTVYLQMNSLKPEDTAVYYCAADIPGTYYYWGQGTQVTVSS	high polyreactivity
QVQLVESGGGLVQAGGSLRLSCAASGSTIDWYGMGWYRQAPGKERELVAAINFSDGSTYYADSVKGRFTISRDNAKNTVYLQMNSLKPEDTAVYYCAAYTPSYGGRDYWGQGTQVTVSS	low polyreactivity
QVQLVESGGGLVQAGGSLRLSCAASGRTFVNYTMGWYRQAPGKERELVAAIRYRDGSTYYADSVKGRFTISRDNAKNTVYLQMNSLKPEDTAVYYCDTRITQVGDYIYDYWGQGTQGTVSS	low polyreactivity
QVQLVESGGGLVQAGGSLRLSCAASGLILSGYTMGWYRPAPGKERELVAAISRSGGRTYYADSVKGRFTISRDNAKNTVYLQMNSLKPEDTAVYYCAAAKRTWRSDYWGQGTQVTVSS	high polyreactivity
QVQLVESGGGLVQAGGSLRLSCAASGSTIIYNTMGWYRQAPGKERELVARITWSGGSTSYADSVKGRFTISRDNAKNTVYLQMNSLKPEDTAVYYCNRRVQARRYRYDYWGQGTQVTVSS	high polyreactivity
QVQLEESGGGLVQAGGSLRLICAASGGTISKYAMGWYRQAPGTEMELVAAITYSSGSTYYADSVKGRFTISRDNAKNTVYLQMNSLKPEDTAVYYCAARSGLYWWRFDYWGQGTLVTVSS	high polyreactivity
QVQLVESGGGVVQAGGSLRLSCAASGRIFGPYTMGWYRQAPGKERELVARISRRGGSTYYADSVKGRFTISRDNAKNTVYLQMNSLKPEDTAVYYCARSQAVYDGWFAKFGYWGQGTQVTVSS	low polyreactivity
